Laboratory results: the supplement of paper PMC9170038

Legend:
MS2 coat protein [1] = test: apparent KD of MS2 coat protein, switch ON state; designed switch direction (-1 OFF switch, 1 ON switch): -1; higher = weaker reporter binding; settings: FMN input: 0 or 200 uM; Eterna round: R93 (includes R88 designs)
Procedure, shortened: (§1)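 Designed RNA switches were transcribed on-chip from Illumina sequencing clusters and titrated with SNAP-549-labelled MS2 coat protein in twofold steps from 0.7 or 1.5 nM up to 3 µM. Each step lasted 0.8–1.5 h at first and 10–20 min by the end, in 100 mM Tris-HCl pH 7.5, 80 mM KCl and 4 mM MgCl2, without or with constant ligand. Apparent KD is the median, for each design, of fits to normalised cluster binding curves.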

MS2 coat protein [2] = test: apparent KD of MS2 coat protein, switch OFF state (with FMN for OFF switches, without FMN for ON switches); designed switch direction (-1 OFF switch, 1 ON switch): -1; higher = weaker reporter binding; settings: FMN input: 0 or 200 uM; Eterna round: R93 (includes R88 designs)
Procedure, shortened: as §1

Sequence	apparent KD of MS2 coat protein (MS2 coat protein [1]) [nM]	apparent KD of MS2 coat protein (MS2 coat protein [2]) [nM]
CCAGGACAUGAGGAUCACCCAUGUGAGGAUAUCUGUAUUCAAUCCUCGGAUUGAAUACAGAGAAGGCACAUGGA [Ex1: 659]	38.6	26.8
UGCAUGUAAGGAUAUGCAACCGGCGCUCAUUAACCGGUCAAGCAGAAGGUACAUGAGGAUCACCCAUGUGUCCG [Esteleus]	17.2	52.2
AAAACUAGAGGAUAUACGUACAUGUCAAAAGACGUGAAGGGACAUGAGGAUCACCCAUGUAGAAGGCUAGAAAA [JL Stem Breaker 9]	45.2	104
AAGAAAGGAGGAUAUACAUGAGGAUCACCCAUGUAAAAGAAAGAAAAGGGAAAGAAAAGUAGAAGGCCUAAGAA [Usermaatre-meryamun Ramesses III]	39.2	28.7
AAAAAGGAAGGAUAUACAUGAGGAUCACCCAUGUAAAAAAAAAAAAAGGGAAAAAAAAGUAGAAGGUCCAAAAA [Montuemsaf Djedankhre]	33	40.9
AACAGUACAGGAUAUACAUGAGGAUCACCCAUGUAAAAGGGAAGUGGCGUACCACAAAGUAGAAGGGUACUGGA [Moding Maslow revisited (73) 6]	37.6	121
AGAGACAGAGGAUAUACAUGAGGAUCACCCAUGUAAAAGAAAGAAAAGGGAAAGAAAAGUAGAAGGCUGAGAGA [Ruby 66]	23.6	25.4
AAAAAAGGAGGAUAUACGAACAUGUCAAAAGACGUGAAGGGACAUGAGGAUCACCCAUGUAGAAGGCCUAAAAA [JL Part Open 34]	35.4	60.8
AAAAAGGCAGGAUAUACGAGUCAAAGAAAAGACAAAAGGAGACAUGAGGAUCACCCAUGUAGAAGGGCCAAAAA [Fiskers exclusion D2 62% 5]	36.8	48.8
AAAAAGCGAGGAUAUACAUGAGGAUCACCCAUGUGAAAAAAAAAAAAAAAAAAAAAAAGUAGAAGGCGCAAAAA [H20 RNA]	46.4	39.2
AAGAAGGUAGGAUAUACUAAAGAAAUAAAAAGAAAGAAAGAACAUGAGGAUCACCCAUGUAGAAGGGCCAAGAA [Merkare]	51	35.2
AACCAACAUGAGGAUCACCCAUGUCAGGAUAUGCAAACAACAAACAACAAACAACAAAGCAGAAGGGACAACAA [63%, Olong, 1]	15.2	21.1
AAGAAGCUAGGAUAUACAUGAGGAUCACCCAUGUAAAAGAAAGAAAGGGAAAAGAAAAGUAGAAGGAGCAAGAA [Netjerikheperre-setpenamun Siamun-meryamun]	12.2	18.1
AAAAAGGGAGGAUAUACAUGAGGAUCACCCAUGUAAAAAAAAAAAAAAGGGAGGGAAGGUAGAAGGCCCAAAAA [Excls3-II]	39.6	52.5
AGGAAACAUGAGGAUCACCCAUGUGAGGAUAUGAACGAAAAUAAAUAAAAAUAAAAGUUCAGAAGGUACAAAAA [66%, Wbt, 5]	23.6	36.8
GUCAGCUGAGGAUAUACAGGUGAUGCCGCAGAACAAAAUAUACAUGAGGAUCACCCAUGUAGAAGGCGGAAGAC [Terian]	49.4	44.1
AAGAAACAUGAGGAUCACCCAUGUGAGGAUAUACAAAAGAAAAGAAAAGAAAGAAGAAGUAGAAGGUACAAAGG [Merenre Nemtyemsaf II]	23.7	26.6
AAAAAACAUGAGGAUCACCCAUGUAAGGAUAUCUAAAAUAAAAGAAAAAUAAAGAAAAGGAGAAGGUACAUGGA [JL wbt mod 22]	22.9	15.6
UGUUGGCGAGGAUAUACAUGAGGAUCACCCAUGUGAGAGAAAAAAGUGAGAAAGAAAAGUAGAAGGCGCUGACA [salish99-ex3-07]	46.2	282
AUCUUGUCAGGAUAUGACUACAUAAAAAAAAAAAAAUGUAGUCAGAAGGGACAUGAGGAUCACCCAUGUACUAA [hsl_exclusion4]	41.9	62.4
CUCAUGUCAGGAUAUGUAGCAUGAUACGAAAGUAUCAUGCUACAGAAGGGACAUGAGGAUCACCCAUGUGAUCA [Ex4: 941]	31.7	25.5
AACAGUACAGGAUAUACAUGAGGAUCACCCAUGUGGGUGUUAAGUGGCGUACCACAAAGUAGAAGGGUACUGGA [JL In the Red CG]	327	106
